Results as given in PMC6056610.

Tests used:
[1] = molecular target: 16055 NFL Q563P (HIV-1 16055 (clade C)); assay: negative stain electron microscopy; 2D class averages (RELION) of purified trimers, ~0.01 mg/mL, 0.7% uranyl formate
[2] = molecular target: 16055 NFL Q563P (HIV-1 16055 (clade C)); assay: SEC; Superdex 200 16/60 or 10/300 GL after lectin-affinity chromatography; also after negative selection or rEK cleavage where told
[3] = molecular target: BG505 NFL I559P (HIV-1 BG505 (clade A)); assay: as above
[4] = molecular target: BG505 NFL N554P (HIV-1 BG505 (clade A)); assay: as above
[5] = molecular target: 16055 NFL S553P (HIV-1 16055 (clade C)); assay: as above
[6] = molecular target: BG505 NFL Q563P (HIV-1 BG505 (clade A)); assay: as above
[7] = molecular target: 16055 NFL N554P (HIV-1 16055 (clade C)); assay: as above
[8] = molecular target: BG505 NFL Q562P (HIV-1 BG505 (clade A)); assay: as above
[9] = molecular target: 16055 NFL Q562P (HIV-1 16055 (clade C)); assay: negative stain electron microscopy; 2D class averages (RELION) of purified trimers, ~0.01 mg/mL, 0.7% uranyl formate
[10] = molecular target: 16055 NFL Q562P (HIV-1 16055 (clade C)); assay: SEC; Superdex 200 16/60 or 10/300 GL after lectin-affinity chromatography; also after negative selection or rEK cleavage where told
[11] = molecular target: 16055 NFL I559P (HIV-1 16055 (clade C)); assay: as above
[12] = molecular target: 16055 NFL L555P (HIV-1 16055 (clade C)); assay: negative stain electron microscopy; 2D class averages (RELION) of purified trimers, ~0.01 mg/mL, 0.7% uranyl formate
[13] = molecular target: 16055 NFL L555P (HIV-1 16055 (clade C)); assay: SEC; Superdex 200 16/60 or 10/300 GL after lectin-affinity chromatography; also after negative selection or rEK cleavage where told
[14] = molecular target: BG505 NFL L555P (HIV-1 BG505 (clade A)); assay: negative stain electron microscopy; 2D class averages (RELION) of purified trimers, ~0.01 mg/mL, 0.7% uranyl formate
[15] = molecular target: BG505 NFL L555P (HIV-1 BG505 (clade A)); assay: SEC; Superdex 200 16/60 or 10/300 GL after lectin-affinity chromatography; also after negative selection or rEK cleavage where told
[16] = molecular target: BG505 NFL S553P (HIV-1 BG505 (clade A)); assay: as above

Work on 16055 NFL Q563P (domain or fragment) yielded a stoichiometry N [1] of 3 and a stoichiometry N [2] of 3.

BG505 NFL I559P (domain or fragment) showed a stoichiometry N [3] of 3.

For BG505 NFL N554P (domain or fragment), the stoichiometry N [4] was 3.

With 16055 NFL S553P (domain or fragment) the stoichiometry N [5] was 3.

BG505 NFL Q563P (domain or fragment) showed a stoichiometry N [6] of 3.

16055 NFL N554P (domain or fragment) showed a stoichiometry N [7] of 3.

Substance BG505 NFL Q562P (domain or fragment) has a stoichiometry N [8] of 3.

16055 NFL Q562P (domain or fragment) gave a stoichiometry N [9] of 3 and a stoichiometry N [10] of 3.

In the case of 16055 NFL I559P (domain or fragment), the stoichiometry N [11] is reported as 3.

16055 NFL L555P (domain or fragment) gave a stoichiometry N [12] of 3 and a stoichiometry N [13] of 3.

With BG505 NFL L555P (domain or fragment) the stoichiometry N [14] was 3 and the stoichiometry N [15] was 3.

Work on BG505 NFL S553P (domain or fragment) yielded a stoichiometry N [16] of 3.
